“And” between values parts separate entries of the source, which are not always exact repeats. Identical values can stand only once.
How the values were obtained:
[1] = Tumour pharmacokinetics (released and total AZD4320) in RS4;11 tumours; assay type: in vivo, C.B-17 SCID mouse; conditions: for Concentration of Released AZD4320 in Tumour, Mean / Concentration of Released AZD4320 in Tumour, individual samples (Fig 5g/5h) / Concentrations of Total AZD4320 in Tumour, individual samples: 10 mg/kg AZD4320 equivalent; for Concentration of Released AZD4320 in Tumour, individual samples (Fig 5g/5h) / Concentrations of Total AZD4320 in Tumour, individual samples / Concentration of total AZD4320 in tumour: listed as SPL-8977; for Mean concentration of total AZD4320 in tumour / Concentration of total AZD4320 in tumour: tumour tissue; for Mean concentration of total AZD4320 in tumour: mean of 3 samples
From the text: For tumour measurements, tumours were harvested, split into smaller pieces and snap frozen in liquid nitrogen. Frozen tumour samples were subsequently weighed and then homogenised for both ‘released’ and ‘total’ AZD4320. For ‘released’ AZD4320, samples were homogenised on ice with an equal volume (w/v) of blank plasma containing 0.2 M citric acid. The samples were then processed according to the aforementioned plasma approach. For ‘total’ AZD4320, samples were homogenised with an equal volume of plasma (w/v) and then processed according to the aforementioned ‘total’ approach.
Sample analyses were performed in batches containing study samples, calibration standards at 10 concentration levels, QC samples at three concentration levels in duplicate and blank samples. The analytical run acceptance criteria for calibration standards and QC samples was that at least 75% of back-calculated concentrations for calibration standards and at least 2/3 of the QC samples (at least 50% at each concentration level) should be within ±20% (±25% at LLOQ) from nominal value.
(§1) Female C.B.−17 SCID mice were purchased from Charles River Laboratories. Mice were 5–8 weeks old at the time of tumour implantation. All xenograft studies were conducted at our Association for the Assessment and Accreditation of Laboratory Animal Care accredited facility in Waltham, MA in accordance with ethical regulations described in the guidelines established by the internal Institutional Animal Care and Use Committee. The dendrimer conjugates were formulated in citrate/phosphate buffer pH 5.0, diluted 1:10 with 5% glucose containing 1% w/v Kolliphor HS15, and AZD4320 was formulated in 30% HP-β-CD and dosed as a weekly intravenous (IV) administration at a volume of 5 ml/kg at the indicated doses. Five million RS4;11, five million SUDHL-4 or five million OCI-LY-10 cells were injected subcutaneously in the right flank of mice in a volume of 0.1 ml. Tumour volumes (measured by caliper), animal body weight, and tumor condition were recorded twice weekly for the duration of the study. The tumour volume was calculated (taking length to be the longest diameter across the tumour and width to be the corresponding perpendicular diameter) using the formula: length (mm) x width (mm)^2/0.52. For efficacy studies, mice were randomized based on tumour volumes using stratified sampling and enrolled into control and treatment groups. Tumour growth inhibition from the start of treatment was quantified by measuring the difference in tumour volume between control and treated groups. Survival analysis was evaluated using Mantel-Cox test. Tumours were also taken for bioanalysis.

RS4;11 xenograft = assay: RS4;11 mouse xenograft efficacy (tumour volume); assay type: in vivo, C.B-17 SCID mouse; design: key to tumour volume, individual animals: tumour volume in mm³, length × width²/0.52; conditions: 20 mg/kg AZD4320
Description: as §1

[2] = RS4;11, single dose AZD0466 34 mg/kg, 3 h, 34 mg/kg
[3] = RS4;11, single dose AZD0466 34 mg/kg, 8 h, 34 mg/kg
[4] = RS4;11, single dose AZD0466 34 mg/kg, 24 h, 34 mg/kg
[5] = RS4;11, single dose AZD0466 34 mg/kg, 48 h, 34 mg/kg
[6] = RS4;11, single dose AZD0466 34 mg/kg, 72 h, 34 mg/kg
[7] = RS4;11, single dose AZD0466 103 mg/kg, 3 h, 103 mg/kg
[8] = RS4;11, single dose AZD0466 103 mg/kg, 8 h, 103 mg/kg
[9] = RS4;11, single dose AZD0466 103 mg/kg, 24 h, 103 mg/kg
[10] = RS4;11, single dose AZD0466 103 mg/kg, 48 h, 103 mg/kg
[11] = RS4;11, single dose AZD0466 103 mg/kg, 72 h, 103 mg/kg

With AZD4320-MIDA-PEG2100 [AZD0466] the “Concentration of Released AZD4320 in Tumour, Mean” value (shortened to “Concentration … in Tumour, Mean”) ([1]; 1 hr) was 8.1 ng/mL, the “Concentration of Released AZD4320 in Tumour, individual samples (Fig 5g/5h)” value (“Concentration of Released AZD4320 … (Fig 5g/5h)” below) ([1]; 1 hr) was 8.2 ng/mL and 11.2 ng/mL and 4.7 ng/mL and the “Concentration … in Tumour, Mean” value ([1]; 3 hr) was 15.1 ng/mL. For the same substance, the “Concentration of Released AZD4320 … (Fig 5g/5h)” value ([1]; 3 hr) was 16 ng/mL and 18.8 ng/mL and 10.4 ng/mL, the “Concentration … in Tumour, Mean” value ([1]; 9 hr) was 109 ng/mL and the “Concentration of Released AZD4320 … (Fig 5g/5h)” value ([1]; 9 hr) was 178.8 ng/mL and 71.4 ng/mL and 78 ng/mL. The “Concentrations of Total AZD4320 in Tumour, individual samples” value ([1]; 9 hr) was 1886 ng/mL and 831 ng/mL and 866 ng/mL, the “Concentration … in Tumour, Mean” value ([1]; 20 hr) was 244 ng/mL and the “Concentration of Released AZD4320 … (Fig 5g/5h)” value ([1]; 20 hr) was 214.9 ng/mL and 250.1 ng/mL and 267.9 ng/mL. The “Concentration … in Tumour, Mean” value ([1]; 48 hr) was 389 ng/mL, the “Concentration of Released AZD4320 … (Fig 5g/5h)” value ([1]; 48 hr) was 493.9 ng/mL and 123.4 ng/mL and 550.2 ng/mL and the “Concentrations of Total AZD4320 in Tumour, individual samples” value ([1]; 48 hr) was 1152 ng/mL and 319 ng/mL and 1257 ng/mL. For the same substance, the “Concentration … in Tumour, Mean” value ([1]; 72 hr) was 462 ng/mL, the “Concentration of Released AZD4320 … (Fig 5g/5h)” value ([1]; 72 hr) was 290.2 ng/mL and 611.5 ng/mL and 485 ng/mL and the “Tumor PK Released AZD4320, individual tumours” value (“Tumor PK Released AZD4320” below) [1, 2] was 16 ng/g and 18.8 ng/g and 10.4 ng/g. For the same substance, the “Tumor PK Total AZD4320, individual tumours” value (from here on “Tumor PK Total AZD4320”) [1, 2] was 621 ng/g and 697 ng/g and 376 ng/g, the “Tumor PK Released AZD4320” value [1, 3] was 179 ng/g and 71.4 ng/g and 78 ng/g and the “Tumor PK Total AZD4320” value [1, 3] was 1886 ng/g and 831 ng/g and 866 ng/g. The “Tumor PK Released AZD4320” value [1, 4] was 215 ng/g and 250 ng/g and 268 ng/g, the “Tumor PK Total AZD4320” value [1, 4] was 926 ng/g and 923 ng/g and 1118 ng/g and the “Tumor PK Released AZD4320” value [1, 5] was 494 ng/g and 123 ng/g and 550 ng/g. The “Tumor PK Total AZD4320” value [1, 5] was 1152 ng/g and 319 ng/g and 1257 ng/g, the “Tumor PK Released AZD4320” value [1, 6] was 290 ng/g and 612 ng/g and 485 ng/g and the “Tumor PK Total AZD4320” value [1, 6] was 536 ng/g and 983 ng/g and 719 ng/g. For the same substance, the “Tumor PK Released AZD4320” value [1, 7] was 227 ng/g and 79 ng/g and 90 ng/g, the “Tumor PK Total AZD4320” value [1, 7] was 5852 ng/g and 2518 ng/g and 2703 ng/g and the “Tumor PK Released AZD4320” value [1, 8] was 1407 ng/g and 1218 ng/g and 972 ng/g. The “Tumor PK Total AZD4320” value [1, 8] was 14358 ng/g and 9822 ng/g and 9418 ng/g, the “Tumor PK Released AZD4320” value [1, 9] was 1730 ng/g and 1595 ng/g and 1484 ng/g and the “Tumor PK Total AZD4320” value [1, 9] was 4335 ng/g and 4133 ng/g and 3920 ng/g. For the same substance, the “Tumor PK Released AZD4320” value [1, 10] was 3581 ng/g and 4025 ng/g and 5214 ng/g, the “Tumor PK Total AZD4320” value [1, 10] was 6225 ng/g and 5604 ng/g and 9523 ng/g and the “Tumor PK Released AZD4320” value [1, 11] was 3295 ng/g and 5783 ng/g and 7049 ng/g. For the same substance, the “Tumor PK Total AZD4320” value [1, 11] was 6132 ng/g and 7039 ng/g and 8246 ng/g, the “Mean concentration of total AZD4320 in tumour” value (“Mean concentration” below) ([1]; 1 hr) was 536 ng/mL and the “Concentration of total AZD4320 in tumour” value ([1]; 1 hr) was 553 ng/mL and 665 ng/mL and 390 ng/mL. For the same substance, the “Mean concentration” value ([1]; 3 hr) was 565 ng/mL, the “Concentration of total AZD4320 in tumour” value ([1]; 3 hr) was 621 ng/mL and 697 ng/mL and 376 ng/mL and the “Mean concentration” value ([1]; 9 hr) was 1194 ng/mL. For the same substance, the “Mean concentration” value ([1]; 20 hr) was 989 ng/mL, the “Concentration of total AZD4320 in tumour” value ([1]; 20 hr) was 926 ng/mL and 923 ng/mL and 1118 ng/mL and the “Mean concentration” value ([1]; 48 hr) was 909 ng/mL. For the same substance, the “Mean concentration” value ([1]; 72 hr) was 746 ng/mL, the “Concentration of total AZD4320 in tumour” value ([1]; 72 hr) was 536 ng/mL and 983 ng/mL and 719 ng/mL and the “tumour volume, individual animals” value (RS4;11 xenograft; Day 38, listed as SPL-8977, 20 mg/kg, in mm³ (unit assumed)) was 600 and 609 and 679 and 641. The “tumour volume, individual animals” value (RS4;11 xenograft; Day 41, listed as SPL-8977, 20 mg/kg, in mm³ (unit assumed)) was 419 and 480 and 364 and 544, the “tumour volume, individual animals” value (RS4;11 xenograft; Day 45, listed as SPL-8977, 20 mg/kg) was 0 (2×) and 133 and 130 and the “tumour volume, individual animals” value (RS4;11 xenograft; Day 48, listed as SPL-8977, 20 mg/kg) was 0 (3×) and 75. The “tumour volume, individual animals” value (RS4;11 xenograft; Day 52, listed as SPL-8977, 20 mg/kg) was 0 (3×) and 134, the “tumour volume, individual animals” value (RS4;11 xenograft; Day 55, in mm³ (unit assumed)) was 0 and the “tumour volume, individual animals” value (RS4;11 xenograft; Day 59, listed as SPL-8977, 20 mg/kg) was 0 (2×) and 122 and 66. The “tumour volume, individual animals” value (RS4;11 xenograft; Day 63, listed as SPL-8977, 20 mg/kg, in mm³ (unit assumed)) was 275 and 244 and 0 and 343, the “tumour volume, individual animals” value (RS4;11 xenograft; Day 66, listed as SPL-8977, 20 mg/kg, in mm³ (unit assumed)) was 255 and 188 and 196 and 333 and the “tumour volume, individual animals” value (RS4;11 xenograft; Day 69, listed as SPL-8977, 20 mg/kg, in mm³ (unit assumed)) was 384 and 259 and 193 and 637.
